These results are taken from patent US20240254223A1 (NOVIMMUNE, published 2024).

Experiment [1] has as its target T1, low-moderate affinity dimeric IL-2R (IL-2Rβ and IL-2Rγ) on HEK-Blue CD122/CD132 cells (UniProt P14784 27-551; P31785 23-369, limits assumed).
T1 sequence (looked up) 1: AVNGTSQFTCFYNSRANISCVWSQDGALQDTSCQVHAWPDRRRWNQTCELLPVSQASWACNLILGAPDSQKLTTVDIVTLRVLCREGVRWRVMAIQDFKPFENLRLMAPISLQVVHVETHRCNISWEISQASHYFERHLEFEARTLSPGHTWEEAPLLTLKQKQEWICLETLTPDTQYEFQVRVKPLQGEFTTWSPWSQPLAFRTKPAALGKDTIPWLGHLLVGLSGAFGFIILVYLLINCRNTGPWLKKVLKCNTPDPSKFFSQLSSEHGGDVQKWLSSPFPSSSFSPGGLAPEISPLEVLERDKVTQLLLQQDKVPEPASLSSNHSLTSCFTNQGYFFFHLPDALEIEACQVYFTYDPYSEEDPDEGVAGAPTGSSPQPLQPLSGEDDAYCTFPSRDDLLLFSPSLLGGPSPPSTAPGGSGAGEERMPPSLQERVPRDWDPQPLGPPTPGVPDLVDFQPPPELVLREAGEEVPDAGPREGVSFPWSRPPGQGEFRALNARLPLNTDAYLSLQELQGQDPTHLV
T1 sequence (looked up) 2: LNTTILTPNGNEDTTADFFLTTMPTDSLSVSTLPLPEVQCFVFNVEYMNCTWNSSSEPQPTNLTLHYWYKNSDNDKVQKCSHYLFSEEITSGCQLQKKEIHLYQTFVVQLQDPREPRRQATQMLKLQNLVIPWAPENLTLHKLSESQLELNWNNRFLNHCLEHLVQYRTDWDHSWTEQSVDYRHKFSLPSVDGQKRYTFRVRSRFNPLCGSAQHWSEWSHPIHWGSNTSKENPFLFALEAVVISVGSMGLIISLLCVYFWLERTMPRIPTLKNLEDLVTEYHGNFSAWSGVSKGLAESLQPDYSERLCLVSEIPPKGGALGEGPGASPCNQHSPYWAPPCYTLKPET
The experiment in a line: cell-based or functional assay.

For experiment [2], the target named is T2, high affinity trimeric IL-2R (IL-2Rα, IL-2Rβ and IL-2Rγ) on HEK-Blue IL-2 cells (UniProt P01589 22-272; P14784 27-551; P31785 23-369).
T2 sequence (looked up) 1: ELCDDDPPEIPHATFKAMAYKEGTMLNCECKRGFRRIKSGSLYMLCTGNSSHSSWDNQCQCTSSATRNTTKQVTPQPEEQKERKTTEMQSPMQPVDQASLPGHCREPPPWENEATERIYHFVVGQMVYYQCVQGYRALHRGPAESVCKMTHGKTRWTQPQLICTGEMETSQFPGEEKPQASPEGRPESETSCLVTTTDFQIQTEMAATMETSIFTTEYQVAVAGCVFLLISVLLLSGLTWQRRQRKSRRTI
T2 sequence (looked up) 2: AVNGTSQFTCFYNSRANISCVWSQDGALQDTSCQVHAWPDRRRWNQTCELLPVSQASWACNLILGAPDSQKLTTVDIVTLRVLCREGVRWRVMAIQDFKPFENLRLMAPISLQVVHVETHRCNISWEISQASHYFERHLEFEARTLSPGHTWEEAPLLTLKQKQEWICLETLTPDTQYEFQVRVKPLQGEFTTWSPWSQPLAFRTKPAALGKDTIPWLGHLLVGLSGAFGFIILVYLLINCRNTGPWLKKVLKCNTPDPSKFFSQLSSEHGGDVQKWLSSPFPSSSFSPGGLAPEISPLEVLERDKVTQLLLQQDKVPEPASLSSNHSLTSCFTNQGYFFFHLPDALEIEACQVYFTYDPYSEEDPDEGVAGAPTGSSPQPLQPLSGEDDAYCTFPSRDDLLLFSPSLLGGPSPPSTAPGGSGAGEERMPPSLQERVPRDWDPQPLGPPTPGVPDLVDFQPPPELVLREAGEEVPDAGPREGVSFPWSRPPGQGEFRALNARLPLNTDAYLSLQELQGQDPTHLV
T2 sequence (looked up) 3: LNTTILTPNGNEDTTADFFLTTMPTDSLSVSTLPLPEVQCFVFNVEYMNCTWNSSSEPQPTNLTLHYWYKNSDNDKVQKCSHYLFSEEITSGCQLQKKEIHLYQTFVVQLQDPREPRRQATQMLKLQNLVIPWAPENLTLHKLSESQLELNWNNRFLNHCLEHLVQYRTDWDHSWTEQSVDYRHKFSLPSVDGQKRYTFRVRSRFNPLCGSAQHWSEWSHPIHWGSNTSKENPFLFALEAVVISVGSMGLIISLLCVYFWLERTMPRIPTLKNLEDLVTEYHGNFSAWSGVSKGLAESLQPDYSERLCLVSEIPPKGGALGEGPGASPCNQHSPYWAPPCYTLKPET
Kind of experiment: cell-based or functional assay.

The target of experiment [3] is T3, CD47 at the surface of Peak cells (human, UniProt Q08722 19-323).
T3 construct: whole, on cells; also called cell surface CD47
Kind of experiment: flow cytometry, Peak cells, after MMP-9 treatment. On the procedure:
Binding activity of antibody-cytokine/receptor fusions before and after cleavage was also evaluated by flow cytometry. Peak cells derived from HEK 293 which are human cells expressing CD47 were used to evaluate masking efficacy and binding recovery to CD47 by flow cytometry. Peak cells were diluted in cold FACS buffer (PBS, 2% BSA) to 1.2×10⁶ cells/mL. 3×10⁵ cells/well were added in a 96 well V-bottom plate. The plate was then centrifugated for 5 min at 1300 rpm, 4° C. Supernatants were removed and cells were washed twice using FACS buffer. A serial dilution of antibody-cytokine/receptor fusions previously digested with MMP-9 or not digested as described above was prepared in FACS buffer. An irrelevant antibody was included. Then, 150 μL of each diluted antibody were added in corresponding well and incubated for 30 min at 4° C. Cells were washed twice with FACS buffer and 100 μL of a mouse anti human Fc-PE conjugated secondary antibody were added and the plate was incubated for 20 min at 4° C. Cells were then washed twice with FACS buffer. Finally, 150 μL of SYTOX blue dead cell stain (ThermoFisher) diluted to 1/5000 in FACS buffer were added before detection by flow cytometry with Cytoflex (Beckman Coulter). Acquisition was performed with 10000 events for each well. Data were analyzed by FlowJo software.
Background: Flow cytometry measures light scatter and fluorescence of single cells or particles in a stream.

Experiment [4] addresses T4, His-tagged human CD47 (human, UniProt Q08722 19-139, limits assumed).
T4 construct: loaded on HIS1K biosensors at 2.5 µg/mL; also called target antigen; not shown: His tag
The experiment in a line: BLI, His-CD47 on HIS1K sensor, after MMP-9 treatment. How it is done: The capacity of the masking domains to inhibit binding activity of the antibody was evaluated by Bio-Layer Interferometry (BLI). […] Binding experiments were performed to evaluate the masking efficiency and the binding recovery after cleavage of the masking domains. BLI was performed on an Octet RED96 system (Sartorius). His-tagged human CD47 was diluted at 2.5 μg/mL in Kinetic Buffer (KB) (Sartorius) and loaded on HIS1K biosensors (anti-His tag antibody biosensors, Sartorius) for 300 seconds. Loaded biosensors were dipped into antibodies diluted at 15 μg/mL in KB for 300 seconds to monitor association. Then, biosensors were transferred in KB for dissociation for 60 seconds. Binding profiles were then analyzed with ForteBio Data Analysis software.
In general terms: Biolayer interferometry detects binding as a change in optical thickness at a sensor tip.

B1: Construct No 690 after cleavage by MMP-9 (antibody)
light: DIQMTQSPSSLSASVGDRVTITCNVDQVIANWLNWYQQKPGKAPKLLIYAASSLQSGVPSRFSGSGSGTDFTLTISSLQPEDFATYYCQQMHPRAPKQFGQGTKVEIKRTVAAPSVFIFPPSDEQLKSGTASVVCLLNNFYPREAKVQWKVDNALQSGNSQESVTEQDSKDSTYSLSSTLTLSKADYEKHKVYACEVTHQGLSSPVTKSFNRGEC
heavy: not shown
notes: MMP-9 digest of m24; the sample also holds the released IL-2Rα and IL-2; also called n690 after cleavage; not shown: remnant of CM1 and linker after MMP-9 cleavage
Consider B1, for which the “EC50 after cleavage IL-2, HEK Blue IL-2 βγ reporter assay” value in experiment [1] stood at 0.03 nM. In addition, the “EC50 after cleavage IL-2, HEK Blue IL-2 αβγ reporter assay” value (shortened to “EC50 … HEK Blue IL-2 αβγ reporter assay”) in experiment [2] stood at 0.07 nM. For the same molecule, the concentration giving a half-maximal response (EC50) (usually the concentration giving half of the maximal effect) in experiment [3] is 0.4 nM.

B2: Construct No 1021 after cleavage by MMP-9 (antibody)
light: DIQMTQSPSSLSASVGDRVTITCNVDQVIANWLNWYQQKPGKAPKLLIYAASSLQSGVPSRFSGSGSGTDFTLTISSLQPEDFATYYCQQMHPRAPKQFGQGTKVEIKRTVAAPSVFIFPPSDEQLKSGTASVVCLLNNFYPREAKVQWKVDNALQSGNSQESVTEQDSKDSTYSLSSTLTLSKADYEKHKVYACEVTHQGLSSPVTKSFNRGEC
heavy: not shown
notes: MMP-9 digest of m35; the sample also holds the released IL-2Rα and IL-2; also called n1021 after cleavage; not shown: remnant of CM1 and linker after MMP-9 cleavage
In the case of B2, in experiment [2], the “EC50 … HEK Blue IL-2 αβγ reporter assay” value worked out at 0.01 nM. The “Binding after cleavage (BLI)” value in experiment [4] amounted to 1.3 nm. In experiment [3], this molecule had an EC50 of 1.3 nM.

B3: Construct No 530 after cleavage by MMP-9 (antibody)
light: DIQMTQSPSSLSASVGDRVTITCNVDQVIANWLNWYQQKPGKAPKLLIYAASSLQSGVPSRFSGSGSGTDFTLTISSLQPEDFATYYCQQMHPRAPKQFGQGTKVEIKRTVAAPSVFIFPPSDEQLKSGTASVVCLLNNFYPREAKVQWKVDNALQSGNSQESVTEQDSKDSTYSLSSTLTLSKADYEKHKVYACEVTHQGLSSPVTKSFNRGEC
heavy: not shown
notes: MMP-9 digest of m18; the sample also holds the released IL-2, IL-2Rα and IL-2Rβ; also called n530 after cleavage; not shown: remnant of CM1 and linker after MMP-9 cleavage
As to B3, the “EC50 … HEK Blue IL-2 αβγ reporter assay” value in experiment [2] stood at 0.01 nM. Further, in experiment [3], a half-maximal response (EC50) required 0.4 nM.

B4: Construct No 1051 after cleavage by MMP-9 (antibody)
light: DIQMTQSPSSLSASVGDRVTITCNVDQVIANWLNWYQQKPGKAPKLLIYAASSLQSGVPSRFSGSGSGTDFTLTISSLQPEDFATYYCQQMHPRAPKQFGQGTKVEIKRTVAAPSVFIFPPSDEQLKSGTASVVCLLNNFYPREAKVQWKVDNALQSGNSQESVTEQDSKDSTYSLSSTLTLSKADYEKHKVYACEVTHQGLSSPVTKSFNRGEC
heavy: not shown
notes: MMP-9 digest of m36; the sample also holds the released IL-2Rα-(GGGGS)2-IL-2 fusion (no cleavable linker between the two); also called n1051 after cleavage; not shown: remnant of CM1 and linker after MMP-9 cleavage
For B4, in experiment [2], the “EC50 … HEK Blue IL-2 αβγ reporter assay” value came to 0.03 nM. Besides, in experiment [4], the “Binding after cleavage (BLI)” value came to 1.2 nm. Moreover, in experiment [3], the midpoint of the response, the EC50, lay at 1.7 nM.

B5: Construct No 545 after cleavage by MMP-9 (antibody)
light: DIQMTQSPSSLSASVGDRVTITCNVDQVIANWLNWYQQKPGKAPKLLIYAASSLQSGVPSRFSGSGSGTDFTLTISSLQPEDFATYYCQQMHPRAPKQFGQGTKVEIKRTVAAPSVFIFPPSDEQLKSGTASVVCLLNNFYPREAKVQWKVDNALQSGNSQESVTEQDSKDSTYSLSSTLTLSKADYEKHKVYACEVTHQGLSSPVTKSFNRGEC
heavy: not shown
notes: MMP-9 digest of m19; the sample also holds the released IL-2, IL-2Rα and IL-2Rβ; also called n545 after cleavage; not shown: remnant of CM1 and linker after MMP-9 cleavage
For B5, in experiment [2], the “EC50 … HEK Blue IL-2 αβγ reporter assay” value is 0.01 nM. In experiment [3], this molecule displayed an EC50 of 0.6 nM.

B6: Construct No 2 after cleavage by MMP-9 (antibody)
light: DIQMTQSPSSLSASVGDRVTITCNVDQVIANWLNWYQQKPGKAPKLLIYAASSLQSGVPSRFSGSGSGTDFTLTISSLQPEDFATYYCQQMHPRAPKQFGQGTKVEIKRTVAAPSVFIFPPSDEQLKSGTASVVCLLNNFYPREAKVQWKVDNALQSGNSQESVTEQDSKDSTYSLSSTLTLSKADYEKHKVYACEVTHQGLSSPVTKSFNRGEC
heavy: not shown
notes: MMP-9 digest of m3; the sample also holds the released IL-2; also called n2 after cleavage; not shown: remnant of CM1 and linker after MMP-9 cleavage
B6: the “EC50 after cleavage IL-2, HEK Blue IL-2 βγ reporter assay” value in experiment [1] was determined as 0.09 nM. The “EC50 … HEK Blue IL-2 αβγ reporter assay” value in experiment [2] worked out at 0.11 nM. This molecule also displayed an EC50 in experiment [3] of 0.4 nM.
